One substance from article PMC2944812 can be followed below.

The experiment deals with Human C1q (human) (UniProt P02745). Put plainly: flow cytometry on cells; Washed TRAP-activated human platelets incubated with or without purified C1q (10 ug/mL), washed, then HAGG (0-10 ug/mL) for 30 min at RT; HAGG detected with rabbit anti-human IgG (Fab2)-FITC; C1q held on the platelet surface. Background: Flow cytometry measures light scatter and fluorescence of single cells or particles in a stream.
Sequence of UniProt P02745 (P02745 23-245, chain 1 of 3): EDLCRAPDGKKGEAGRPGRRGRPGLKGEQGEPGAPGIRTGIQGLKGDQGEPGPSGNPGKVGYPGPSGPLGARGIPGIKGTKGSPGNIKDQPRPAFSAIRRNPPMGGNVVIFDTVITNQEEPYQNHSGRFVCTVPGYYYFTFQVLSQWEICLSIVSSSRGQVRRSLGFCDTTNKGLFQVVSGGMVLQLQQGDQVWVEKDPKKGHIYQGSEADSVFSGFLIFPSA
Sequence of UniProt P02745 (P02746 28-253, chain 2 of 3, further chain): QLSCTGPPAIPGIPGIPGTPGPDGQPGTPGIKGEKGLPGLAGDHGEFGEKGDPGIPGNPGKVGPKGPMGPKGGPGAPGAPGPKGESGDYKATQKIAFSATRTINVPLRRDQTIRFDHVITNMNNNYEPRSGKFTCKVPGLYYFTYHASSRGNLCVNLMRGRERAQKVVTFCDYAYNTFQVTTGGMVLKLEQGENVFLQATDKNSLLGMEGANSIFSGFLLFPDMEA
Sequence of UniProt P02745 (P02747 29-245, chain 3 of 3, further chain): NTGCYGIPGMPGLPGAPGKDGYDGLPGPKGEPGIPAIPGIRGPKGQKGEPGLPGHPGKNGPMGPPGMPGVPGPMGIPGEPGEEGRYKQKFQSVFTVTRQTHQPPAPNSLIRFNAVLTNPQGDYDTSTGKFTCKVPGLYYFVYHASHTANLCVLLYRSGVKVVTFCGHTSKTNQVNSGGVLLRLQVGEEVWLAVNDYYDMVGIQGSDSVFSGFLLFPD

As to “heat-aggregated gamma globulin (natural protein)”, the fold increase of HAGG binding to activated platelets with C1q against without C1q came out at 2 fold.
